B1: Isoform 2 of Bardet-Biedl syndrome 7 protein (Homo sapiens), Q8IWZ6-2 (parent)
chain: MDLILNRMDYLQVGVTSQKTMKLIPASRHRATQKVVIGDHDGVVMCFGMKKGEAAAVFKTLPGPKIARLELGGVINTPQEKIFIAAASEIRGFTKRGKQFLSFETNLTESIKAMHISGSDLFLSASYIYNHYCDCKDQHYYLSGDKINDVICLPVERLSRITPVLACQDRVLRVLQGSDVMYAVEVPGPPTVLALHNGNGGDSGEDLLFGTSDGKLALIQITTSKPVRKWEIQNEKKRGGILCIDSFDIVGDGVKDLLVGRDDGMVEVYSFDNANEPVLRFDQMLSESVTSIQGGCVGKDSYDEIVVSTYSGWVTGLTTEPIHKESGPGEELKINQEMQNKISSLRNELEHLQYKVLQERENYQQSSQSSKAKSAVPSFGINDKFTLNKDDASYSLILEVQTAIDNVLIQSDVPIDLLDVDKNSAVVSFSSCDSESNDNFLLATYRCQADTTRLELKIRSIEGQYGTLQAYVTPRIQPKTCQVRQYHIKPLSLHQRTHFIDHDRPMNTLTLTGQFSFAEVHSWVVFCLPEVPEKPPAGECVTFYFQNTFLDTQLESTYRKGEGVFKSDNISTISILKDVLSKEATKRKINLNISYEINEVSVKHTLKLIHPKLEYQLLLAKKVQLIDALKELQIHEGNTNFLIPEYHCILEEADHLQEEYKKQPAHLERLYG
partner: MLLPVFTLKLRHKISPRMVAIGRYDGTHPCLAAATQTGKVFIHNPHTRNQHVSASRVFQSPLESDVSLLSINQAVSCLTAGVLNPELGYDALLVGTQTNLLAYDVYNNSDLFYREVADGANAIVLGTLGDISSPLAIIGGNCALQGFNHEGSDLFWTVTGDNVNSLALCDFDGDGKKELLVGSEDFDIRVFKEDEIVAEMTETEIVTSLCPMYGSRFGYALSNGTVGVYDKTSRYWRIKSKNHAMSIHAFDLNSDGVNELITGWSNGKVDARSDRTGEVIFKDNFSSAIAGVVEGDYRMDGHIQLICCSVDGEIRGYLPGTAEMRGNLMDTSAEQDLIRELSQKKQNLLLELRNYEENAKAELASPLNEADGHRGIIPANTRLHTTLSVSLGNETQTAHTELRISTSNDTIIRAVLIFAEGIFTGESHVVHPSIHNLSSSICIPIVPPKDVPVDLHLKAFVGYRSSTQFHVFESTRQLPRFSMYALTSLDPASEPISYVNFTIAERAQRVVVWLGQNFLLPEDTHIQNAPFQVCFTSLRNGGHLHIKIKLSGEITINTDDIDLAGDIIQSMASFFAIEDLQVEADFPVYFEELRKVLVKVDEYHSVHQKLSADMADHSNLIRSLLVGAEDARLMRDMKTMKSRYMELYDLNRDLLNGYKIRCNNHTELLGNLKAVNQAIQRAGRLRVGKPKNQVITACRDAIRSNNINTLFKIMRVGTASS

Variants of: B1
Conditions: with bbs2_human BBS2, Q9BXC9

Variant	effect of a mutation on the interaction
Q365E	with no effect
Q365A	with no effect
Q365K	with no effect
Q353E	with no effect
Q353K	with no effect
Q353A	with no effect
S367A	with no effect
S367E	with no effect
S367K	with no effect
L357K	with no effect
L357A	with no effect
L357E	with no effect
Y363A	with no effect
Y363K	with no effect
Y363E	with no effect
F385A	with no effect
K355E	with no effect
K355A	with no effect
N362K	with no effect
N362A	with no effect
N362E	with no effect
Q364A	with no effect
Q364K	with no effect
Q364E	with no effect

Variant	effect of a mutation on the interaction
V376I	disrupting interaction strength
V376A	with no effect
V376K	with no effect
V376E	with no effect
Y354A	with no effect
Y354E	with no effect
Y354K	with no effect
S378A	with no effect
S378K	with no effect
S378E	with no effect
N382E	with no effect
N382K	with no effect
N382A	with no effect
S366E	with no effect
S366K	with no effect
S366A	with no effect
K373A	with no effect
K373E	with no effect
Q368K	with no effect
Q368E	with no effect
Q368A	with no effect
A372E	with no effect
A372K	with no effect
V356K	with no effect

Variant	effect of a mutation on the interaction
V356A	disrupting interaction strength
V356E	with no effect
K371E	with no effect
K371A	with no effect
P377E	with no effect
P377A	with no effect
P377K	with no effect
F379K	with no effect
F379A	with no effect
F379E	with no effect
A375K	with no effect
A375E	with no effect
G380E	with no effect
G380A	with no effect
G380K	with no effect
L352E	with no effect
L352A	with no effect
L352K	with no effect
S374E	with no effect
S374A	with no effect
S374K	with no effect
E359K	with no effect
E359A	with no effect
E361A	with no effect

Variant	effect of a mutation on the interaction
E361K	with no effect
Q358E	with no effect
Q358A	with no effect
Q358K	with no effect
D383A	with no effect
D383E	with no effect
D383K	with no effect
S369A	with no effect
S369K	with no effect
S369E	with no effect
S370E	with no effect
S370K	with no effect
S370A	with no effect
K384E	with no effect
K384A	with no effect
R360A	with no effect
R360K	with no effect
R360E	with no effect
I381E	with no effect
I381K	with no effect
I381A	with no effect
